The values that follow come from US20250283871A1, “COMPOSITIONS AND METHODS FOR MODULATING THE INTERACTION BETWEEN SS18-SSX FUSION ONCOPROTEIN AND NUCLEOSOMES” (Dana-Farber Cancer Institute, Inc., priority 2020, published 2025).

Assay [1] deals with LPGAT1 (sp|Q92604|LGAT1_HUMAN) (human) (UniProt Q92604). Put plainly: HA affinity purification from HEK-293T nuclear extract, mass spectrometry peptide counts.
For assay [2], the target named is LZIC (sp|Q8WZA0|LZIC_HUMAN) (human) (UniProt Q8WZA0). The description is as above.
Assay [3] concerns the target KCNMA1 (tr|A0A1W2PP06|A0A1W2PP06_HUMAN) (human) (UniProt Q12791). The description is as above.
The target of assay [4] is mammalian mononucleosomes (HEK293T) carrying H3K9me2S10ph1K14ac0 (mammalian (HEK293T)) (UniProt P68431). As to the kind of experiment: MBP-SSX1 78aa pull-down, targeted histone MS.
Assay [5] deals with mammalian mononucleosomes (HEK293T) carrying H2A(12to17)K13ac1 (mammalian (HEK293T)) (UniProt P0C0S8). As to the kind of experiment: MBP-SSX1 78aa pull-down, targeted histone MS.
For assay [6], the target named is mammalian mononucleosomes (HEK293T) carrying H4(4to17)K5ac1K8ac1K12ac1K16ac1me0 (mammalian (HEK293T)) (UniProt P62805). As to the kind of experiment: MBP-SSX1 78aa pull-down, targeted histone MS.
In assay [7] the target is mammalian mononucleosomes (HEK293T) carrying H3K9me1S10ph1K14ac1 (mammalian (HEK293T)) (UniProt P68431). Put plainly: MBP-SSX1 78aa pull-down, targeted histone MS.
For assay [8], the target named is mammalian mononucleosomes (HEK293T) carrying H3K4me1 (mammalian (HEK293T)) (UniProt P68431). Put plainly: MBP-SSX1 78aa pull-down, targeted histone MS.
Assay [9] concerns the target mammalian mononucleosomes (HEK293T) carrying H3K9me2S10ph1K14ac1 (mammalian (HEK293T)) (UniProt P68431). Put plainly: MBP-SSX1 78aa pull-down, targeted histone MS.
The target of assay [10] is mammalian mononucleosomes (HEK293T) carrying H2AZ(1to19)K4ac1 (mammalian (HEK293T)) (UniProt P0C0S5). As to the kind of experiment: MBP-SSX1 78aa pull-down, targeted histone MS.
For assay [11], the target named is mammalian mononucleosomes (HEK293T) carrying H4(20to23)K20me0 (mammalian (HEK293T)) (UniProt P62805). As to the kind of experiment: MBP-SSX1 78aa pull-down, targeted histone MS.
For assay [12], the target named is mammalian mononucleosomes (HEK293T) carrying H4(4to17)K5ac1me0 (mammalian (HEK293T)) (UniProt P62805). Put plainly: MBP-SSX1 78aa pull-down, targeted histone MS.
Assay [13] has as its target mammalian mononucleosomes (HEK293T) carrying H4(4to17)K5ac1K8ac1K12ac1me0 (mammalian (HEK293T)) (UniProt P62805). Put plainly: MBP-SSX1 78aa pull-down, targeted histone MS.
Assay [14] has as its target mammalian mononucleosomes (HEK293T) carrying H2A(12to17)ac0 (mammalian (HEK293T)) (UniProt P0C0S8). As to the kind of experiment: MBP-SSX1 78aa pull-down, targeted histone MS.
Assay [15] deals with mammalian mononucleosomes (HEK293T) carrying H4(4to17)K8ac1K12ac1me0 (mammalian (HEK293T)) (UniProt P62805). As to the kind of experiment: MBP-SSX1 78aa pull-down, targeted histone MS.
The target in assay [16] is mammalian mononucleosomes (HEK293T) carrying H4(4to17)K5ac1K16ac1me0 (mammalian (HEK293T)) (UniProt P62805). Put plainly: MBP-SSX1 78aa pull-down, targeted histone MS.
Assay [17] has as its target mammalian mononucleosomes (HEK293T) carrying H4(4to17)ac0me0 (mammalian (HEK293T)) (UniProt P62805). Put plainly: MBP-SSX1 78aa pull-down, targeted histone MS.
Assay [18] concerns the target mammalian mononucleosomes (HEK293T) carrying H2AZ(1to19)ac0 (mammalian (HEK293T)) (UniProt P0C0S5). As to the kind of experiment: MBP-SSX1 78aa pull-down, targeted histone MS.
Assay [19] concerns the target mammalian mononucleosomes (HEK293T) carrying H4(4to17)K16ac1me0 (mammalian (HEK293T)) (UniProt P62805). As to the kind of experiment: MBP-SSX1 78aa pull-down, targeted histone MS.
Assay [20] addresses mammalian mononucleosomes (HEK293T) carrying H2A(4to11)K9ac1 (mammalian (HEK293T)) (UniProt P0C0S8). As to the kind of experiment: MBP-SSX1 78aa pull-down, targeted histone MS.
For assay [21], the target named is mammalian mononucleosomes (HEK293T) carrying H4(20to23)K20me2 (mammalian (HEK293T)) (UniProt P62805). As to the kind of experiment: MBP-SSX1 78aa pull-down, targeted histone MS.
The target of assay [22] is mammalian mononucleosomes (HEK293T) carrying H4(4to17)K5ac1K8ac1me0 (mammalian (HEK293T)) (UniProt P62805). As to the kind of experiment: MBP-SSX1 78aa pull-down, targeted histone MS.
Assay [23] concerns the target mammalian mononucleosomes (HEK293T) carrying H4(4to17)K12ac1K16ac1me0 (mammalian (HEK293T)) (UniProt P62805). As to the kind of experiment: MBP-SSX1 78aa pull-down, targeted histone MS.
For assay [24], the target named is mammalian mononucleosomes (HEK293T) carrying H2A(4to11)K5ac1K9ac1 (mammalian (HEK293T)) (UniProt P0C0S8). Put plainly: MBP-SSX1 78aa pull-down, targeted histone MS.
Assay [25] deals with mammalian mononucleosomes (HEK293T) carrying H2A(12to17)K15ac1 (mammalian (HEK293T)) (UniProt P0C0S8). Put plainly: MBP-SSX1 78aa pull-down, targeted histone MS.
The target in assay [26] is mammalian mononucleosomes (HEK293T) carrying H2A(4to11)K5ac1 (mammalian (HEK293T)) (UniProt P0C0S8). Put plainly: MBP-SSX1 78aa pull-down, targeted histone MS.
Assay [27] has as its target mammalian mononucleosomes (HEK293T) carrying H3K4ac1 (mammalian (HEK293T)) (UniProt P68431). Put plainly: MBP-SSX1 78aa pull-down, targeted histone MS.
The target in assay [28] is mammalian mononucleosomes (HEK293T) carrying H4(4to17)K5ac1K8ac1K16ac1me0 (mammalian (HEK293T)) (UniProt P62805). As to the kind of experiment: MBP-SSX1 78aa pull-down, targeted histone MS.
Assay [29] deals with mammalian mononucleosomes (HEK293T) carrying H4(20to23)K20me1 (mammalian (HEK293T)) (UniProt P62805). As to the kind of experiment: MBP-SSX1 78aa pull-down, targeted histone MS.
The target in assay [30] is mammalian mononucleosomes (HEK293T) carrying H4(20to23)K20me3 (mammalian (HEK293T)) (UniProt P62805). Put plainly: MBP-SSX1 78aa pull-down, targeted histone MS.
The target in assay [31] is mammalian mononucleosomes (HEK293T) carrying H4(4to17)K12ac1me0 (mammalian (HEK293T)) (UniProt P62805). As to the kind of experiment: MBP-SSX1 78aa pull-down, targeted histone MS.
Assay [32] addresses mammalian mononucleosomes (HEK293T) carrying H2A(4to11)ac0 (mammalian (HEK293T)) (UniProt P0C0S8). As to the kind of experiment: MBP-SSX1 78aa pull-down, targeted histone MS.
Assay [33] concerns the target mammalian mononucleosomes (HEK293T) carrying H3K4me3 (mammalian (HEK293T)) (UniProt P68431). As to the kind of experiment: MBP-SSX1 78aa pull-down, targeted histone MS.
Assay [34] addresses mammalian mononucleosomes (HEK293T) carrying H3K4me2 (mammalian (HEK293T)) (UniProt P68431). Put plainly: MBP-SSX1 78aa pull-down, targeted histone MS.
Assay [35] concerns the target mammalian mononucleosomes (HEK293T) carrying H3K9me3S10ph1K14ac0 (mammalian (HEK293T)) (UniProt P68431). Put plainly: MBP-SSX1 78aa pull-down, targeted histone MS.
Assay [36] addresses mammalian mononucleosomes (HEK293T) carrying H2B(1to29)K5ac1 (mammalian (HEK293T)) (UniProt P62807). As to the kind of experiment: MBP-SSX1 78aa pull-down, targeted histone MS.
In assay [37] the target is mammalian mononucleosomes (HEK293T) carrying H4(4to17)K8ac1K12ac1K16ac1me0 (mammalian (HEK293T)) (UniProt P62805). As to the kind of experiment: MBP-SSX1 78aa pull-down, targeted histone MS.
The target in assay [38] is recombinant H2A K119Ub mononucleosomes (UniProt P04908). As to the kind of experiment: AlphaLISA; 95% CI 7.2-48.5. A general note: Alpha assays give light when donor and acceptor beads are brought close together.
Assay [39] concerns the target cellular chromatin (endogenous nucleosomes; core histones H2A, H2B, H3, H4) (human) (UniProt P0C0S8). Put plainly: differential salt extraction, immunoblot. (In general: Immunoblotting shows a protein as a band on a membrane.)
Assay [40] shares this target. As to the kind of experiment: cell-based or functional assay.
Assay [41] deals with mammalian mononucleosome (HEK293T) carrying histone H3 K79me2 (human (HEK-293T cells)) (UniProt P68431). As to the kind of experiment: MBP-SSX1 78aa pull-down of pooled HEK293T mononucleosomes, targeted quantitative histone MS; input c3-c5: 0.498, 0.469, 0.455.
For assay [42], the target named is mammalian mononucleosome (HEK293T) carrying histone H3 K79me1 (human (HEK-293T cells)) (UniProt P68431). Put plainly: MBP-SSX1 78aa pull-down of pooled HEK293T mononucleosomes, targeted quantitative histone MS; input c3-c5: 0.268, 0.441, 0.301.
Assay [43] has as its target TSP1_HUMAN Thrombospondin-1 (human) (UniProt P07996). As to the kind of experiment: anti-SMARCA4 (BRG1) IP, mass spectrometry, human fibroblasts.
The target of assay [44] is recombinant H2A K119Ub mononucleosomes (UniProt P04908). Put plainly: AlphaLISA; 95% CI 2.3-9.1.
Assay [45] has as its target recombinant, unmodified mononucleosomes (UniProt P04908). As to the kind of experiment: AlphaLISA; 95% CI 9.1-53.3.

“And” between values parts separate entries of the source, which are not always exact repeats. Equal entries are not always repeated.

As for HA-SS18 WT (from UniProt Q15532 1-387), the Total peptides in [1], in assay [2] and in assay [3] was 1 peptides each time. For the same substance, the Unique peptides in assay [1], in [2] and in assay [3] was 1 peptides in each case.
In the case of “MBP-SSX1 78aa protein (from UniProt Q16384 111-188)”, the log2norm (Light/Heavy) intensity ratio is -0.683 log2 and -1.09 log2 in assay [4]; 0.032 log2 and -0.047 log2 in assay [5]; 0.276 log2 and 0.245 log2 in assay [6]; -2.67 log2 and -2.51 log2 in [7]; 0.74 log2 and 0.353 log2 in [8]; -0.87 log2 and -1.01 log2 in [9]. For the same substance, the log2norm (Light/Heavy) intensity ratio is -0.217 log2 and 0.048 log2 in assay [10]; 0.017 log2 and 0.092 log2 in [11]; -0.053 log2 and 0.075 log2 in assay [12]; -0.223 log2 and -0.27 log2 in [13]; 0.201 log2 and -0.12 log2 in assay [14]; -0.198 log2 and -0.093 log2 in [15]. Moreover, the log2norm (Light/Heavy) intensity ratio is 0.226 log2 and 0.367 log2 in assay [16]; -0.613 log2 and -0.573 log2 in assay [17]; -0.784 log2 and -0.697 log2 in [18]; -0.391 log2 and -0.337 log2 in assay [19]; -0.254 log2 and -0.375 log2 in [20]; -0.414 log2 and -0.391 log2 in assay [21]. Further, the log2norm (Light/Heavy) intensity ratio is 0.107 log2 and 0.094 log2 in [22]; 0.204 log2 and 0.304 log2 in [23]; -0.031 log2 and -0.049 log2 in assay [24]; 0.042 log2 and -0.086 log2 in assay [25]; 0.569 log2 and 0.624 log2 in assay [26]; 0.263 log2 and 0.32 log2 in assay [27]. In addition, the log2norm (Light/Heavy) intensity ratio in [28] is 0.474 log2 and 0.311 log2; in assay [29], -0.427 log2 and -0.443 log2; in [30], -0.109 log2 and 0.055 log2; in [31], -0.207 log2 and -0.275 log2; in [32] it was -0.026 log2 and 0.061 log2; in assay [33] it was 0.766 log2 and 0.505 log2. Also, the log2norm (Light/Heavy) intensity ratio in assay [34] was 0.778 log2 and 0.532 log2; in [35], -0.566 log2 and -1.03 log2; in assay [36], 0.273 log2 and 0.323 log2; in assay [37], 0.677 log2 and 0.625 log2.
The term EC50 denotes the concentration giving half of the maximal effect. In the case of “GST-SSXdel7aa (acidic C-term DPEEDDE-->AAAAAAA) (from UniProt Q16384 111-181)”, the EC50 in assay [38] was determined as 18.7 nM.
Consider “SS18-SSX-bound BAF complexes (HA-SS18-SSX1 purification)”, for which the NaCl concentration of elution from chromatin in assay [39] was > 1 M.
In [40], GFP-SS18-SSX1 showed an FRAP recovery half-time of 33.9 s.
Consider “MBP-SSX1 78aa (from UniProt Q16384 111-188)”, for which the log2norm (Light/Heavy) intensity ratio normalized to histone norm peptide in assay [41] is 0.826 log2 and 0.557 log2; in [42], 0.954 log2 and 0.54 log2.
With GFP-SS18 WT (from UniProt Q15532 2-418), the FRAP recovery half-time in [40] stood at 10.1 s.
“SMCA4_HUMAN Transcription activator BRG1 (from UniProt P51532 1-1647)” returned an NSAF in assay [43] of 0.000217.
Regarding “wild-type SS18-bound BAF complexes (HA-SS18 WT purification) (from UniProt Q15532 1-387)”, the NaCl concentration of elution from chromatin in [39] fell in the range of 0.3 to 0.5 M.
Turning to “GST-SSX1 (78aa) (from UniProt Q16384 111-188)”, the EC50 in [44] amounted to 4.6 nM; in assay [45] it was 22.1 nM.
